From publication PMC9896810, “Crk proteins activate the Rap1 guanine nucleotide exchange factor C3G by segregated adaptor-dependent and -independent mechanisms” (Cell Communication and Signaling : CCS, 2023) come the findings set out here.

Some results are limits rather than exact numbers.

Experiment [1] concerns the target C3G-AAPA-Y554H (human, UniProt Q13905-1 4-1077, Y554H). Description: ITC; single-PRM mutants of C3G in the cell titrated with full-length CrkL or CrkL-SH3N; 25 °C; 1:1 model in SEDPHAT; N is the competent fraction of C3G. To be noted: both partners purified. On the technique in general: Isothermal titration calorimetry measures the heat released or taken up as one component is titrated into another.

Experiment [2] has as its target T1, Src-phosphorylated C3G-AAPA (pC3G-AAPA) (human, UniProt Q13905-1 4-1077, phosphotyrosines (phosphorylated in vitro by Src; sites not stated)).
T1 chain: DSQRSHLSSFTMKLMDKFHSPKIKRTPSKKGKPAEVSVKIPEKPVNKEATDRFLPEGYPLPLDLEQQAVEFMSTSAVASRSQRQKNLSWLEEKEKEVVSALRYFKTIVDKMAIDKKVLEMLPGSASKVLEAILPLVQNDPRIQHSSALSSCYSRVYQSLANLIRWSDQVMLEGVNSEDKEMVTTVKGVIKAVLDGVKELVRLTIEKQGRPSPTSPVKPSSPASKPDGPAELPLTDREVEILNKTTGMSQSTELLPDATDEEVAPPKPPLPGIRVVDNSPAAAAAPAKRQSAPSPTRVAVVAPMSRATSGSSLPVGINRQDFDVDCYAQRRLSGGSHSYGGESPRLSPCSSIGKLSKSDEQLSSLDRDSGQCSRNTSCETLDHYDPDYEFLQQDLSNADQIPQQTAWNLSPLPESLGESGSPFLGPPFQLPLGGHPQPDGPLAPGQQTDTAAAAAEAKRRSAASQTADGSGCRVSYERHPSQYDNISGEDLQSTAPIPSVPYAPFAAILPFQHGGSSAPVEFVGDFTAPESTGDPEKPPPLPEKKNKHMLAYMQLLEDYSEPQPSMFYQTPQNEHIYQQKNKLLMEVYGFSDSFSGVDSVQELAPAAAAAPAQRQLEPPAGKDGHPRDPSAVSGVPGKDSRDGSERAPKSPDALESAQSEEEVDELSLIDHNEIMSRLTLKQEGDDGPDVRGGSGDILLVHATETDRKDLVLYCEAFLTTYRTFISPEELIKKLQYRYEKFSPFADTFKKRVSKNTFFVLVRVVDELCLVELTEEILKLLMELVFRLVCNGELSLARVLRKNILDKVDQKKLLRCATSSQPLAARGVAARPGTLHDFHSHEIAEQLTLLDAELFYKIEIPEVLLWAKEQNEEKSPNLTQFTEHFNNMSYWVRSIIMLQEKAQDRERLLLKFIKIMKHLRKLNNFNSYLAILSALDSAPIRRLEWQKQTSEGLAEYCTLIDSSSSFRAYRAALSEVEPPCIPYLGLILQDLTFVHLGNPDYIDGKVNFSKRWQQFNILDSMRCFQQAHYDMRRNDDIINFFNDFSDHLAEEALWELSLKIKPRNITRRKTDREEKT
The description is as above. To be noted: both partners purified.

The target in experiment [3] is T2, Src-phosphorylated C3G (pC3G), wild type (human, UniProt Q13905-1 4-1077, phosphotyrosines (phosphorylated in vitro by Src; sites not stated)).
T2 sequence (looked up): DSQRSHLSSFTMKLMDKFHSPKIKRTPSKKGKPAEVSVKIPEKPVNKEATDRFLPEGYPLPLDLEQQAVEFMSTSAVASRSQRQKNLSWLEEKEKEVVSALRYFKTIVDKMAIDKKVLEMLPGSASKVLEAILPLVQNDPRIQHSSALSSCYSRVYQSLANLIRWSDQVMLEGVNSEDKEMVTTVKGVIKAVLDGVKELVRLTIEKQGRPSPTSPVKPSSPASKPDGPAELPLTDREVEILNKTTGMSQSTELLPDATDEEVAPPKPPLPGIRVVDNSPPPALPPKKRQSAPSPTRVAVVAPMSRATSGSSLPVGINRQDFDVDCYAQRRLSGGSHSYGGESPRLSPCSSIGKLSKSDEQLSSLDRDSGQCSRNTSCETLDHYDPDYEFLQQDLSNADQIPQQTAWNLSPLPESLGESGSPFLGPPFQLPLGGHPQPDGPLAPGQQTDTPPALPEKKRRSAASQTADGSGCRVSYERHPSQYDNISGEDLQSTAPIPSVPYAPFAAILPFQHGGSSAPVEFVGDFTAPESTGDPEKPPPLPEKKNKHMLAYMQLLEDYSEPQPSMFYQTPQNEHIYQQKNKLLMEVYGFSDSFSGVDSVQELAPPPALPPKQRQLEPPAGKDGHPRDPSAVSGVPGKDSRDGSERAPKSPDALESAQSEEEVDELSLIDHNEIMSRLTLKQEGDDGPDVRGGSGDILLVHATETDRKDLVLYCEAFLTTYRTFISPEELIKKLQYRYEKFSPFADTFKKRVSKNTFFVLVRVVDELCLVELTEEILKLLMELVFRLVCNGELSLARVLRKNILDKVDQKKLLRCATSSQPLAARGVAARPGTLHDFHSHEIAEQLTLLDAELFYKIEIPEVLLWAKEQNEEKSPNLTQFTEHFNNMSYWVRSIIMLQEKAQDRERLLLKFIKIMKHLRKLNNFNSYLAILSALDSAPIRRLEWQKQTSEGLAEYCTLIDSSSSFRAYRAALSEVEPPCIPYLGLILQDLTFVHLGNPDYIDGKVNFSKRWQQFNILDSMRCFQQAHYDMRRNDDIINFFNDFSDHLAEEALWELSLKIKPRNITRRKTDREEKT
Description: cell-based or functional assay.

The target of experiment [4] is T3, C3G full-length wild type (human, isoform a, residues 4-1077) (human, UniProt Q13905-1 4-1077).
T3 sequence (looked up): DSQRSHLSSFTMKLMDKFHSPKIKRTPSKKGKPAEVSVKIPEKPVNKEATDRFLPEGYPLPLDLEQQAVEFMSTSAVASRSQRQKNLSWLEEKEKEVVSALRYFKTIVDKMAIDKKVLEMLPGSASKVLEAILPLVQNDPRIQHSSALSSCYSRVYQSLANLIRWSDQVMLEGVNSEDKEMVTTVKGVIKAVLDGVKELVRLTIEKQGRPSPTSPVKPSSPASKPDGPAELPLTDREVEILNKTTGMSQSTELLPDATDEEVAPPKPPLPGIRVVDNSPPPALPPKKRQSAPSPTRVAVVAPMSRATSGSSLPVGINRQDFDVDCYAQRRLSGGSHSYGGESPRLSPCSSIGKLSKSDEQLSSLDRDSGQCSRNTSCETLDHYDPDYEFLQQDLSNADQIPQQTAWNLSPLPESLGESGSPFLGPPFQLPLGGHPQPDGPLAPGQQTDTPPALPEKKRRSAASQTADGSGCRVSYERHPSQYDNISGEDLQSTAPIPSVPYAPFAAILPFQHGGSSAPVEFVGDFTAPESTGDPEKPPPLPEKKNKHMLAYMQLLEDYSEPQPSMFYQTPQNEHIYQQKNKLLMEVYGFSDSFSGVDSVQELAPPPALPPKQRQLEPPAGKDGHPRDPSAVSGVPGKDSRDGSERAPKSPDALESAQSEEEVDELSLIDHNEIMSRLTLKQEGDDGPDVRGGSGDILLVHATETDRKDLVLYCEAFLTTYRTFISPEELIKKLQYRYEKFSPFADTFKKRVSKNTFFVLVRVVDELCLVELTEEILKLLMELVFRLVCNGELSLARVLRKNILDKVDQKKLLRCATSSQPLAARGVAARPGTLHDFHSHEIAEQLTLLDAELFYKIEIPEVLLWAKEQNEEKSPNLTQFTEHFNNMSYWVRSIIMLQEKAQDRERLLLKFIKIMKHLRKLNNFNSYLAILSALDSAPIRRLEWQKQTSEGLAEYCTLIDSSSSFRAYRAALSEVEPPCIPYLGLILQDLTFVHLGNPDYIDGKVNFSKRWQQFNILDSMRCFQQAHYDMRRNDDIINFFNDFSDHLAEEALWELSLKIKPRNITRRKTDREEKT
Description: cell-based or functional assay.

For experiment [5], the target named is T3, C3G full-length wild type (human, …). The experiment is described as follows: ITC; C3G in the cell titrated with CrkL; 25 °C; 300 mM NaCl, pH 7.5 (Tris-HCl or Na-phosphate); three titrations fitted one by one, independent-site model (MicroCal Origin). Particulars: both partners purified.
In experiment [6] the target is T2, Src-phosphorylated C3G (pC3G), wild type. Description: ITC; full-length C3G or pC3G in the cell titrated with CrkL, CrkL fragments, CrkL-W160S or CrkII; 25 °C; 300 mM NaCl, pH 7.5; parameters in Table S11. Particulars: both partners purified.
Experiment [7] addresses T3, C3G full-length wild type (human, …). Description: AUC; sedimentation velocity of C3G with increasing CrkL; 20 mM Tris-HCl, 300 mM NaCl, pH 7.5, 20 °C, 48,000 rpm; isotherms fitted with three symmetric sites (Gilbert-Jenkins), microscopic kd. To be noted: both partners purified.
Experiment [8] has the same target. Description: ITC; same three titrations of C3G with CrkL, global fit in SEDPHAT, three symmetric binding sites, microscopic kd. Particulars: both partners purified.
Experiment [9] deals with T2, Src-phosphorylated C3G (pC3G), wild type. The experiment is described as follows: cell-based or functional assay. This is another data set of the same source.
The target is the same in experiment [10]. The experiment is described as follows: pull-down; 30 µg GST-CrkL (full-length or SH3N) with 30 µg C3G on glutathione-agarose; 20 mM Tris-HCl, 150 mM NaCl, pH 7.5, 0.01% BSA; 30 min, 4 °C; washes with 0.1% Triton X-100; coomassie or western blot. Particulars: both partners purified. For orientation: A western blot detects proteins with antibodies after separation by electrophoresis.

B1: CrkL-SH3N (residues 125-182) (domain or fragment, human, UniProt P46109 125-182, looked up)
chain: LEYVRTLYDFPGNDAEDLPFKKGEILVIIEKPEEQWWSARNKDGRVGMIPVPYVEKLV
notes: human CrkL, SH3N domain, residues 125-182, in pETEV15b; also called SH3N domain of CrkL; isolated SH3N domain; source: E. coli BL21 (DE3), purified (His-tagged, purified in a similar manner as C3G)
Broadly, the Kd is the concentration at which binding is half-saturated. High values mean a looser complex, low ones a tighter complex. A word on the stoichiometry N: it is the number of molecules, sites or subunits per partner or assembly. With B1, in experiment [1], the Kd turned out to be 800 nM and the “stoichiometry N” value is ~0.5 molecules of SH3N per molecule of C3G-AAPA-Y554H. In addition, the “stoichiometry N” value in [2] is roughly 0.1. In experiment [3], the “AC50 of the dose-response activation of the GEF activity of pC3G (0.2 µM) on Rap1b:mant-dGDP” value was determined as 12.8 µM and the “kmax of the dose-response activation of the GEF activity of pC3G (0.2 µM) on Rap1b:mant-dGDP” value was 0.0139 s^-1 µM^-1. In [4], the “AC50 of the dose-response activation of the GEF activity of C3G (1 µM) on Rap1b:mant-dGDP” value was 26800 nM and the “kmax of the dose-response activation of the GEF activity of C3G (1 µM) on Rap1b:mant-dGDP” value amounted to 6300 M⁻¹ s⁻¹.

B2: CrkL, full-length (human) (natural protein, UniProt P46109 1-303, looked up)
chain: MSSARFDSSDRSAWYMGPVSRQEAQTRLQGQRHGMFLVRDSSTCPGDYVLSVSENSRVSHYIINSLPNRRFKIGDQEFDHLPALLEFYKIHYLDTTTLIEPAPRYPSPPMGSVSAPNLPTAEDNLEYVRTLYDFPGNDAEDLPFKKGEILVIIEKPEEQWWSARNKDGRVGMIPVPYVEKLVRSSPHGKHGNRNSNSYGIPEPAHAYAQPQTTTPLPAVSGSPGAAITPLPSTQNGPVFAKAIQKRVPCAYDKTALALEVGDIVKVTRMNINGQWEGEVNGRKGLFPFTHVKIFDPQNPDENE
notes: Monomer by sedimentation velocity and DLS (theoretical mass 33.7 kDa); Purification 'in a similar manner' as C3G would include TEV cleavage of the tag; also called Crk-like protein; wild type CrkL; source: E. coli BL21 (DE3), purified (His-tagged, purified in a similar manner as C3G)
Usually koff stands for the first-order rate constant of dissociation. Read a low koff as slow dissociation. Turning to B2, in [5], the equilibrium dissociation constant (Kd) lay in the range of 2800 to 3600 nM and the “stoichiometry N” value was ~3 molecules of CrkL per molecule of C3G. Moreover, the affinity in [6], expressed as Kd, was 1300 nM. In experiment [7], this molecule showed a Kd of 1400 nM and a koff greater than 0.001 s⁻¹. In experiment [8], this molecule gave a Kd of 2300 nM. Besides, the “GEF activity of pC3G (0.2 µM) on Rap1b:mant-dGDP with 5 µM CrkL, fold over pC3G alone” value in experiment [9] is roughly 9 fold. Also, in [3], the “AC50 of the dose-response activation of the GEF activity of pC3G (0.2 µM) on Rap1b:mant-dGDP” value came out at 1.7 µM and the “kmax of the dose-response activation of the GEF activity of pC3G (0.2 µM) on Rap1b:mant-dGDP” value stood at 0.0342 s^-1 µM^-1. Besides, in experiment [4], the “AC50 of the dose-response activation of the GEF activity of C3G (1 µM) on Rap1b:mant-dGDP” value is 22400 nM and the “kmax of the dose-response activation of the GEF activity of C3G (1 µM) on Rap1b:mant-dGDP” value came out at 13400 M⁻¹ s⁻¹.

B3: GST-CrkL R39K (natural protein, human, UniProt P46109 1-303, looked up)
chain: MSSARFDSSDRSAWYMGPVSRQEAQTRLQGQRHGMFLVKDSSTCPGDYVLSVSENSRVSHYIINSLPNRRFKIGDQEFDHLPALLEFYKIHYLDTTTLIEPAPRYPSPPMGSVSAPNLPTAEDNLEYVRTLYDFPGNDAEDLPFKKGEILVIIEKPEEQWWSARNKDGRVGMIPVPYVEKLVRSSPHGKHGNRNSNSYGIPEPAHAYAQPQTTTPLPAVSGSPGAAITPLPSTQNGPVFAKAIQKRVPCAYDKTALALEVGDIVKVTRMNINGQWEGEVNGRKGLFPFTHVKIFDPQNPDENE
notes: human CrkL, full-length, R39K; the results print 'R93K alone', the methods and the sentence before print R39K; also called R93K; source: E. coli BL21 (DE3), purified GST fusion
As to B3, in [10], the binding result was “binds”.
